# According to patent US20130040894A1, “INHIBITION OR ACTIVATION OF SERINE/THREONINE ULK3 KINASE ACTIVITY” (TALLINN UNIVERSITY OF TECHNOLOGY, priority 2009, published 2013):
# T1: FLAG-tagged GLI2, P10070
# T1 chain: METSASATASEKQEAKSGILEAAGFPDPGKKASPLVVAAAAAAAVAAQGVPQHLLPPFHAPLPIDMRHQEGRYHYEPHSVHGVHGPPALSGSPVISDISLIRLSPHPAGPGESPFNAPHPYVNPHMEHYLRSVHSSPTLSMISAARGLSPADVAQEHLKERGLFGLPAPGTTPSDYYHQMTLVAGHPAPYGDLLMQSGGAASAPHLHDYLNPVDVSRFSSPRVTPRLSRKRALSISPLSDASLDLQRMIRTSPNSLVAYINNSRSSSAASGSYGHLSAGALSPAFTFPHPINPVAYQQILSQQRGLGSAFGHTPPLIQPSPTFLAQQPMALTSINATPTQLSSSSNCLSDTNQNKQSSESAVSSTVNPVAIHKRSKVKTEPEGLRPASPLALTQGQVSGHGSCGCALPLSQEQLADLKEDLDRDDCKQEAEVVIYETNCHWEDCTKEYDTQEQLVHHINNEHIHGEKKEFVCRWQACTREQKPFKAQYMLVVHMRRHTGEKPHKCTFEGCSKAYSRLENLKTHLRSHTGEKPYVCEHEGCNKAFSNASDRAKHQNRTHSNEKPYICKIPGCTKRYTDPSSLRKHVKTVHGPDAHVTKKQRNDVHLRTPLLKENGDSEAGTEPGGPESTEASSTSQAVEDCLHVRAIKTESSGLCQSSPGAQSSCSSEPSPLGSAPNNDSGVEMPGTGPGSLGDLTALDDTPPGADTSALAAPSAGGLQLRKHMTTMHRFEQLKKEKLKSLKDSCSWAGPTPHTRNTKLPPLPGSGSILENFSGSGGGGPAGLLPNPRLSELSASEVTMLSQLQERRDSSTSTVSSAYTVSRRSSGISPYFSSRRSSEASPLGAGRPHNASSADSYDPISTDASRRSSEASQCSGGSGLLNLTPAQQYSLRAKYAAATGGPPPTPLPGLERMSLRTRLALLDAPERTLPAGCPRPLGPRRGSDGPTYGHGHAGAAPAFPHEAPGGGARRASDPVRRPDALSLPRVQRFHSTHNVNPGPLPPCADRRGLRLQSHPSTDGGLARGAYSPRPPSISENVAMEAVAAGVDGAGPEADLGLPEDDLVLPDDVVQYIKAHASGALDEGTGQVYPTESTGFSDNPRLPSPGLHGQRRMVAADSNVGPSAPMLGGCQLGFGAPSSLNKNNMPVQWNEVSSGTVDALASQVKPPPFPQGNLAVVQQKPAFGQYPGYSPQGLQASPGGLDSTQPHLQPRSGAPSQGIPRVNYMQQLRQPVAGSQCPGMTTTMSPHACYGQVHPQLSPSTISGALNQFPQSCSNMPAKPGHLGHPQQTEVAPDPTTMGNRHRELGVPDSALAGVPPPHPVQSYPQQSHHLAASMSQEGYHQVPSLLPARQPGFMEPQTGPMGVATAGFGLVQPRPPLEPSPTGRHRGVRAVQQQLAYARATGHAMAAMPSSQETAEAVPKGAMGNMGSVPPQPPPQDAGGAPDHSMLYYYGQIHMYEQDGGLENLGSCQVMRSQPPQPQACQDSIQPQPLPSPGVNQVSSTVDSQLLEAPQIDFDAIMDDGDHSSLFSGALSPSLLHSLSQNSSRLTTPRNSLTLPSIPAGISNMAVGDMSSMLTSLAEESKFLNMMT
# B1: FLAG-tagged ULK3(K44R) (protein)
# chain: MAGPGWGPPRLDGFILTERLGSGTYATVYKAYAKKDTREVVAIRCVAKKSLNKASVENLLTEIEILKGIRHPHIVQLKDFQWDSDNIYLIMEFCAGGDLSRFIHTRRILPEKVARVFMQQLASALQFLHERNISHLDLKPQNILLSSLEKPHLKLADFGFAQHMSPWDEKHVLRGSPLYMAPEMVCQRQYDARVDLWSMGVILYEALFGQPPFASRSFSELEEKIRSNRVIELPLRPLLSRDCRDLLQRLLERDPSRRISFQDFFAHPWVDLEHMPSGESLGRATALVVQAVKKDQEGDSAAALSLYCKALDFFVPALHYEVDAQRKEAIKAKVGQYVSRAEELKAIVSSSNQALLRQGTSARDLLREMARDKPRLLAALEVASAAMAKEEAAGGEQDALDLYQHSLGELLLLLAAEPPGRRRELLHTEVQNLMARAEYLKEQVKMRESRWEADTLDKEGLSESVRSSCTLQ
# How the values were obtained:
# FLAG-tagged GLI2, P10070 = biological target: T1, FLAG-tagged GLI2, P10070
# ULK3 = assay: In vitro kinase assay, autophosphorylation; format: biochemical, human; details: FLAG-tagged protein immunopurified from HEK293 cells, γ-P32-ATP
# Description: (§1) HEK293 cells were transfected with 13.5 μg of FLAG-tagged constructs expressed GLI1, GLI2, GLI3, ULK3, ULK3(K44R), ULK3(K139R) or FLAG-CMV-4 empty vector on 10 cm plates. The cells were lysed with 0.5 ml of Lysis Buffer (50 mM Tris HCl, pH 7.4, 150 mM NaCl, 1 mM EDTA, 1% Triton X-100) containing protease inhibitor cocktail (PIC) (Roche Applied Science). The lysates were centrifuged for 15 min at 4° C. and 15000 g, and the supernatants were used for immunoprecipitation (IP). IP was performed using anti-FLAG-M2 affinity gel (Sigma-Aldrich) in batch format according to the manufacture's instructions. Immune complexes were washed three times with 500 μl of Kinase Buffer (KB) (50 mM HEPES, pH 7.4, 20 mM MgCl2, 25 μM ATP) and resuspended in 12.5 μl of KB. One fifth of the immuno-complexes was subjected to WB and the rest was used for the kinase assay.
# (§2) Kinase reactions were carried out in KB in a total volume of 20 μl of in the presence of 1 μCi of [γ-^32P]ATP per reaction. We used 1 μl of the immunoprecipitated ULK3, ULK3(K44R) or ULK3(K139R) mixed with 5 μl of the GLI-M2 immunocomplexes or 5 μl of bacterially expressed and purified His-GLI1 fragments. Kinase reactions were held at 30° C. for 30 min and terminated by adding of 5 μl of 4× Laemmli Sample Buffer. Proteins were resolved by SDS-PAGE. The gel was dried at 80° C. for 2 h, and autoradiography was performed using Bio-Rad Personal Molecular Imager FX.
# To test if ULK3 has an autophosphorylation activity, we expressed FLAG-tagged wild-type ULK3 and mutants ULK3(K44R) and ULK3(K139R) in HEK293 cells, immunopurified and subjected to in vitro kinase assay in the presence of γ-P^32-ATP.
# GLI2 = assay: In vitro kinase assay, phosphorylation of GLI2; format: biochemical; details: FLAG-tagged GLI2 immunoprecipitated from HEK293 cells
# Description: as §1
# as §2, with “The gel was dried at 80° C. for 2 h, and autoradiography was performed using Bio-Rad Personal Molecular Imager FX.” left out
# [1] = test system: GLI-dependent firefly luciferase activity in Shh-LIGHT2 cells; assay: GLI-dependent luciferase assay in Shh-L2 cells; format: cell-based, mouse
# Description: Cells were transfected by the expression constructs or respective empty vectors using Polyethylenimine transfection agent (PEI) (Inbio) and as described in [28]. We used 0.25 μg of cDNA per 1 cm^2 of plate surface area for transfections. After 3 h of transfection HEK293, NIH3T3 and Cos1 cells were propagated in the normal growth medium for 48 h. Prior the further analysis the cells were washed twice with PBS. Post-transfectional Shh-L2 cells were grown in the normal growth medium for 24 h and for additional 24 h in the Light medium containing 0.25% FBS, washed once with PBS, lysed in Passive Lysis Buffer (Promega, Madison Wis., USA) (70 ul per well of 24-well plate format) and subjected to luciferase assay.
# Luciferase assay was performed as previously described. Briefly, firefly luciferase activity of 12 μl of the Shh-L2 cells lysate was measured using Luciferase Assay Kit (Promega) and galactosidase activity was quantified using Galacto-LightPlus kit (Tropix, Bedford Mass., USA) according to the manufacturer's instructions. Chemiluminicence was measured using Ascent FL Fluoroscan (Thermo Electron Corporation, Waltham Mass., USA) according to the manufacturer's instructions.
# We cotransfected the constructs together with GLI-expressing plasmids (or respective empty vector) into Shh-L2 cells and assessed their effect on GLI-dependent firefly luciferase activity. The obtained data was normalized with β-galactosidase values. […] It was able to stimulate the luciferase activity 3.8 times and enhanced the transcriptional activity of over expressed GLI1 and GLI2 approximately 2 and 3.2 times, respectively. The potency of STK36 in the assay was much lower.
# In order to examine if the kinase activity of ULK3 is required for the luciferase reporter activation we tested the supposed kinase-deficient variants of ULK3, ULK3(K44R) and ULK3(K139R) in the same assay. […] We also tested the effect of ULK3 and the mutants on the luciferase reporter when the SHH pathway was activated by cotransfection with pShhN (plasmid expressing biologically active part of SHH).
molecule,measurement,setting,value
B1,"in vitro kinase assay, phosphorylation signal (32P autoradiography)","FLAG-tagged GLI2, P10070",The mutant ULK3(K44R) could slightly phosphorylate GLI2 (data not shown)
same,autophosphorylation activity,ULK3,reduced efficiency in autophosphorylation
same,phosphorylation of GLI2,GLI2,slightly phosphorylate
same,enhancement of transcriptional activity of overexpressed GLI1,"[1]; cotransfected with GLI1, Shh-L2 cells",neither of the mutants had an effect
same,enhancement of transcriptional activity of overexpressed GLI2,"[1]; cotransfected with GLI2, Shh-L2 cells",some residual activity
same,induction of luciferase activity with activated SHH pathway,"[1]; cotransfection with pShhN, Shh-L2 cells",1.7 times
